Test results: publication PMC6544321, “Structural insights into histone chaperone Chz1-mediated H2A.Z recognition and histone replacement” (PLoS Biology, 2019)

B1: middle and C-terminal region of Chz1 (Chz1 64-153) (domain or fragment, S. cerevisiae (budding yeast), UniProt P40019 64-153, looked up)
chain: TVEDSESDMDDAKLDALMGNEGEEEEDDLAEIDTSNIITSGRRTRGKVIDYKKTAEELDKKEPSTGSKDDVGYGEKEEDDEDEEDDDFKE
notes: Chz1, budding yeast, residues 64-153; only residues 142-153 are seen in the crystal structure; also called Chz1-MC; Chz1-MC WT; source: E. coli BL21-CodonPLUS(DE3)-RIPL, purified (Ni-NTA, HiTrap Q)
B2: single chain H2A-H2B with H2A P50A (other)
chain: RKETYSSYIYKVLKQTHPDTGISQKSMSILNSFVNDIFERIATEASKLAAYNKKSTISAREIQTAVRLILPGELAKHAVSEGTRAVTKYSSSTQAQSRSAKAGLTFPVGRVHRLLRRGNYAQRIGSGAAVYLTAVLEYLAAEILELAGNAARDNKKTRIIPRHLQLAIRNDDELNKLLGNVTIAQGGVLPNI
B3: single chain H2A-H2B with H2A NKLGNV→DSIRA (other)
chain: RKETYSSYIYKVLKQTHPDTGISQKSMSILNSFVNDIFERIATEASKLAAYNKKSTISAREIQTAVRLILPGELAKHAVSEGTRAVTKYSSSTQAQSRSAKAGLTFPVGRVHRLLRRGNYAQRIGSGAPVYLTAVLEYLAAEILELAGNAARDNKKTRIIPRHLQLAIRNDDELDSLIRATIAQGGVLPNI
B4: single chain H2A-H2B with H2A N91G (other)
chain: MRKETYSSYIYKVLKQTHPDTGISQKSMSILNSFVNDIFERIATEASKLAAYNKKSTISAREIQTAVRLILPGELAKHAVSEGTRAVTKYSSSTQAQSRSAKAGLTFPVGRVHRLLRRGNYAQRIGSGAPVYLTAVLEYLAAEILELAGNAARDNKKTRIIPRHLQLAIRGDDELNKLLGNVTIAQGGVLPNI
B5: middle region of Chz1 (Chz1 64-124) (domain or fragment, S. cerevisiae (budding yeast), UniProt P40019 64-124, looked up)
chain: TVEDSESDMDDAKLDALMGNEGEEEEDDLAEIDTSNIITSGRRTRGKVIDYKKTAEELDKK
notes: Chz1, budding yeast, residues 64-124; also called Chz1-M; source: E. coli BL21-CodonPLUS(DE3)-RIPL, purified (Ni-NTA, HiTrap Q)
B6: yeast single chain H2A-H2B (other)
chain: RKETYSSYIYKVLKQTHPDTGISQKSMSILNSFVNDIFERIATEASKLAAYNKKSTISAREIQTAVRLILPGELAKHAVSEGTRAVTKYSSSTQAQSRSAKAGLTFPVGRVHRLLRRGNYAQRIGSGAPVYLTAVLEYLAAEILELAGNAARDNKKTRIIPRHLQLAIRNDDELNKLLGNVTIAQGGVLPNI
modifications: Limits and order (H2B then H2A) are taken by homology from scZB in 2JSS/6AE8. The paper's H2B numbers are mature (+1 on precursor) and its H2A numbers are precursor. H2A.1 paralogue assumed.

What was measured:
Conditions in all cases: both partners purified
[1] = molecular target: B3; test: ITC; MicroCal VP-ITC, 25°C, 20 mM MES (pH 6.0), 0.5 M NaCl; chaperone (50 or 150 μM) injected into histones (5 μM scZB or 15 μM scAB and mutants) in the cell; one-site fit
[2] = molecular target: B4; test: as above
[3] = molecular target: B2; test: as above
[4] = molecular target: B6; test: as above
[5] = molecular target: B1; test: as above
[6] = molecular target: B6; test: ITC; 0.2 M NaCl (Table 1); Swc2-Z or Chz1-M injected into single-chain histone dimers; otherwise as the ITC methods (25°C, 20 mM MES pH 6.0)
[7] = molecular target: T1, Swc2-Z, the 1–136 segment of the Swc2 subunit of the SWR1 complex (yeast); test: as above
T1 construct: SWR complex protein 2 (Swc2), subunit of the yeast SWR1 complex, residues 1-136

[8] = molecular target: B5; test: as above
[9] = molecular target: B5; test: ITC; MicroCal VP-ITC, 25°C, 20 mM MES (pH 6.0), 0.5 M NaCl; chaperone (50 or 150 μM) injected into histones (5 μM scZB or 15 μM scAB and mutants) in the cell; one-site fit

Binder: B1
stoichiometry N [1]: 0.9 sites | stoichiometry N [2]: 1 sites | stoichiometry N [3]: 1 sites | stoichiometry N [4]: 0.9 sites

Binder: B2
Kd [5]: 530 ± 40 nM

Binder: B3
Kd [5]: 5080 ± 180 nM

Binder: B4
Kd [5]: 420 ± 20 nM

Binder: B5
stoichiometry N [6]: 1 sites | stoichiometry N [4]: 0.7 sites

Binder: B6
Kd [7]: 200 ± 70 nM | Kd [8]: 300 ± 2 nM | Kd [9]: 7870 ± 350 nM | Kd [5]: 5020 ± 420 nM
